Data from the Human Domainome abundance scans (Beltran et al. 2025).

B1: Intersectin-1, residues 1156 to 1213; numbered along this chain, Q15811 (parent)
chain: AVCQVIGMYDYTAQNDDELAFNKGQIINVLNKEDPDWWKGEVNGQVGLFPSNYVKLTT

Variants of: B1
Assay: abundance fitness (aPCA) (normalised: wild type 0, dead -1); higher = more abundant; growth selection in yeast, the domain comes from the species named
Conditions: Homo sapiens

Abundance fitness: each site, then its substitutions
Q14: R 0.038 | A -0.267 | G -0.186 | E -0.122 | T -0.255 | W -0.723 | I -0.58 | C -0.582 | P -0.844 | D -0.285 | V -0.263 | H -0.505 | L -0.441 | K 0.161 | Y -0.922 | M -0.284
Y9: E 0.338 | V 0.336 | Q 0.535 | F 0.259 | I 0.431 | T 0.257 | C 0.387 | G -0.164 | N 0.418 | D 0.196 | P -0.835 | L 0.263 | A 0.362 | K 0.474 | R 0.538 | H 0.278
M8: Y -0.472 | W -0.3 | I 0.542 | F -0.286 | L 0.333 | G -0.51 | S -0.233 | E 0.541 | N -0.576 | C -0.02 | T -0.002 | Q 0.31 | A 0.209 | H -0.167 | R 0.145 | D -0.67 | P -0.914
T12: C -0.464 | N 0.01 | D -0.203 | H -0.108 | R -0.072 | I -0.608 | M -0.168 | A -0.075 | V -0.165 | F -0.39 | L -0.369 | W -0.629 | Y -0.289 | Q -0.345 | K -0.178 | G -0.424
A13: D -0.944 | M -0.853 | L -0.903 | E -0.822 | Q -0.676 | V -0.832 | N -0.839 | W -0.746 | S -0.455 | P -0.059 | C -0.76 | I -0.735 | F -0.592 | R -0.451 | Y -0.574 | T -0.336
V5: H -0.644 | K -0.708 | M -0.737 | S -0.813 | W -0.574 | L -0.891 | P -0.94 | G -0.309 | R -0.831 | D -0.711 | I -0.823 | E -0.843 | T -0.526 | Q -0.673 | N -0.902 | C 0.005 | A -0.045 | F -0.772 | Y -0.309
F21: E -0.745 | S -0.927 | P -1.06 | T -0.985 | K -0.527 | L -0.687 | Q -1.13 | C -1.01 | R -0.686 | G -0.772 | M -0.643 | I -0.266 | D -0.656 | A -0.913 | H -0.724
E18: Y -0.254 | D -0.263 | L -0.745 | C -0.309 | N -0.954 | S -0.397 | H -0.208 | A -0.646 | Q 0.036 | P -0.919 | K -0.439 | W -0.905 | M -0.696 | F -0.466 | T -0.908 | V -0.722 | I -0.853 | R -0.819 | G -0.317
D16: E 0.059 | H -0.614 | G -0.121 | R -0.293 | M -0.225 | Q 0.115 | W -0.726 | Y -0.588 | T -0.232 | S -0.296 | N -0.302 | P -0.259 | C -0.166 | A -0.232 | L -0.3 | I -0.108
D17: E -0.03 | F -0.359 | V -0.473 | T -0.119 | I -0.419 | K -0.099 | C -0.344 | N 0.147 | H -0.298 | Q -0.082 | P -0.592 | Y -0.359 | R 0.014 | M -0.048 | G 0.101 | L -0.125 | S 0.126
V2: S -0.233 | Y -0.264 | Q -0.466 | W -0.384 | N -0.223 | T -0.187 | H -0.105 | K -0.06 | R -0.003 | M -0.205 | L -0.375 | G -0.115 | P -0.222
G7: W -0.775 | D -0.721 | Y -1.13 | M -0.681 | Q -0.893 | V -0.551 | A 0.54 | P -0.519 | F -0.739 | L -0.618 | C 0.176 | K -0.772 | R -0.849 | N -1.15 | S 0.309 | H -0.466
L19: W -0.838 | I -0.357 | S -0.848 | R -0.764 | P -0.806 | T -0.648 | C -0.599 | N -0.7 | G -0.726 | D -0.776 | F -0.733 | K -0.908 | V -0.281 | A -0.9 | E -0.523 | H -0.858 | Y -1.04 | Q -0.869
Y11: S -0.769 | L -0.851 | C -0.509 | F -0.271 | R -0.374 | I -0.563 | T -0.555 | D -0.928 | K -0.879 | H 0.077 | Q -0.692 | W -0.932 | N -0.937 | E -0.809 | M -0.698 | P -0.759 | V -0.765 | G -0.655
I6: Y -0.548 | W -0.688 | F -0.619 | M -0.092 | G -0.64 | A -0.639 | E -0.013 | S -0.655 | R -0.446 | N -0.765 | K -0.269 | L -0.47 | V 0.159 | C -0.386 | D -0.922 | T -0.388 | Q -0.156
N15: I -0.664 | T 0.024 | P -0.964 | R 0.038 | Q -0.185 | F -0.539 | D -0.185 | A -0.131 | G 0.047 | H -0.433 | E -0.17 | W -0.635 | L -0.612 | V -0.639 | K 0.047 | S 0.085
Q4: S -0.277 | E -0.629 | R -0.354 | A -0.826 | T -0.207 | M -0.527 | H -0.373 | I -0.391 | V -0.488 | C -0.57 | W -0.451 | G -0.6 | F -0.719 | Y -0.487 | D -1.15 | K -0.236 | L -0.538 | P -0.817
A20: L -0.796 | F -0.673 | P -0.123 | Y -0.662 | S -0.079 | K -0.236 | G 0.1 | T 0.127 | M -0.545 | H -0.268 | E -0.149 | C -0.152 | D -0.286 | W -0.415 | I -0.793 | R -0.292 | Q 0.092 | N -0.484
D10: G -0.59 | F -1.01 | C -0.472 | H -0.262 | I -0.919 | Y -0.838 | P -0.246 | A -0.217 | R -0.335 | N -0.227 | M 0.001 | L -0.724 | S -0.093 | V -0.661 | Q -0.625 | W -0.507
C3: N -0.252 | K -0.597 | M -0.094 | D -0.033 | Q -0.606 | S -0.452 | R -0.555 | H -0.706 | G -0.308 | W -0.449 | P -0.901 | T -0.123 | V -0.374 | L -0.387 | Y -0.184 | F -0.155 | A -0.463
